Assay results as given in patent US20110311550A1.
Like-named read-outs stand apart in the source and are kept apart here.

Legend:
[1] = molecular target: HCV E1E2 complex, isolate H77 (genotype 1a) (hepatitis C virus genotype 1a, isolate H77) (UniProt P27958); test: competition ELISA on lectin-captured H77 E1E2; competitor: Fab Q2
[2] = molecular target: E1E2 complex of HCV isolate H77 (genotype 1a), wild type (HCV isolate H77) (UniProt P27958); test: competition ELISA on H77 E1E2; competitor m41 (Fab O1)
[3] = molecular target: HCV E1E2 complex, isolate H77 (genotype 1a) (hepatitis C virus genotype 1a, isolate H77) (UniProt P27958); test: competition ELISA on lectin-captured H77 E1E2; competitor: Fab R1
[4] = molecular target: E1E2 complex of HCV isolate H77 (genotype 1a), wild type (HCV isolate H77) (UniProt P27958); test: competition ELISA on H77 E1E2; competitor m44 (Fab P2)
[5] = molecular target: E1E2 complex of HCV isolate H77 (genotype 1a), wild type (HCV isolate H77) (UniProt P27958); test: competition ELISA on H77 E1E2; competitor m46 (Fab P4)
[6] = molecular target: HCV E1E2 complex, isolate H77 (genotype 1a) (hepatitis C virus genotype 1a, isolate H77) (UniProt P27958); test: competition ELISA on lectin-captured H77 E1E2; competitor: Fab V1
[7] = molecular target: E1E2 complex of HCV isolate H77 (genotype 1a), wild type (HCV isolate H77) (UniProt P27958); test: competition ELISA on H77 E1E2; competitor m45 (Fab P3)
[8] = molecular target: E1E2 complex of HCV isolate H77 (genotype 1a), wild type (HCV isolate H77) (UniProt P27958); test: competition ELISA on H77 E1E2; competitor m43 (Fab P1a)
[9] = molecular target: HCV E1E2 complex, isolate H77 (genotype 1a) (hepatitis C virus genotype 1a, isolate H77) (UniProt P27958); test: competition ELISA on lectin-captured H77 E1E2; competitor: Fab S1
[10] = molecular target: HCV E1E2 complex, isolate H77 (genotype 1a) (hepatitis C virus genotype 1a, isolate H77) (UniProt P27958); test: competition ELISA on lectin-captured H77 E1E2; competitor: AR2A (in the Blocking Fab columns)
[11] = molecular target: HCV E1E2 complex, isolate H77 (genotype 1a) (hepatitis C virus genotype 1a, isolate H77) (UniProt P27958); test: competition ELISA on lectin-captured H77 E1E2; competitor: Fab U1
[12] = molecular target: HCV E1E2 complex, isolate H77 (genotype 1a) (hepatitis C virus genotype 1a, isolate H77) (UniProt P27958); test: competition ELISA on lectin-captured H77 E1E2; competitor: Fab Q1
[13] = molecular target: HCV E1E2 complex, isolate H77 (genotype 1a) (hepatitis C virus genotype 1a, isolate H77) (UniProt P27958); test: competition ELISA on lectin-captured H77 E1E2; competitor: Fab P6
[14] = molecular target: E1E2 complex of HCV isolate H77 (genotype 1a), wild type (HCV isolate H77) (UniProt P27958); test: competition ELISA on H77 E1E2; competitor m38 (Fab N2)
[15] = molecular target: E1E2 complex of HCV isolate H77 (genotype 1a), wild type (HCV isolate H77) (UniProt P27958); test: competition ELISA on H77 E1E2; competitor m42 (Fab P1)
[16] = molecular target: HCV E1E2 complex, isolate H77 (genotype 1a) (hepatitis C virus genotype 1a, isolate H77) (UniProt P27958); test: competition ELISA on lectin-captured H77 E1E2; competitor: Fab T1
[17] = molecular target: E1E2 complex of HCV isolate H77 (genotype 1a), wild type (HCV isolate H77) (UniProt P27958); test: competition ELISA on H77 E1E2; competitor m40 (Fab N4)
[18] = molecular target: E1E2 complex of HCV isolate H77 (genotype 1a), wild type (HCV isolate H77) (UniProt P27958); test: competition ELISA on H77 E1E2; competitor m39 (Fab N3)
[19] = molecular target: HCV E1E2 complex, isolate H77 (genotype 1a) (hepatitis C virus genotype 1a, isolate H77) (UniProt P27958); test: competition ELISA on lectin-captured H77 E1E2; competitor: Fab P5
[20] = molecular target: HCV E1E2 complex, isolate H77 (genotype 1a) (hepatitis C virus genotype 1a, isolate H77) (UniProt P27958); test: competition ELISA on lectin-captured H77 E1E2; competitor: AR1B (in the Blocking Fab columns)
[21] = molecular target: E1E2 complex of HCV isolate H77 (genotype 1a), wild type (HCV isolate H77) (UniProt P27958); test: competition ELISA on H77 E1E2; competitor m37 (Fab N1)
[22] = molecular target: HCV E1E2 complex, isolate H77 (genotype 1a) (hepatitis C virus genotype 1a, isolate H77) (UniProt P27958); test: apparent affinity: half-maximal binding, ELISA on lectin-captured E1E2
[23] = molecular target: HCV E1E2 complex, isolate HCV-1 (genotype 1a), vaccinia-expressed (hepatitis C virus genotype 1a, isolate HCV-1) (UniProt P26664); test: as above
[24] = molecular target: HCV E1E2 complex, isolate H77 (genotype 1a) (hepatitis C virus genotype 1a, isolate H77) (UniProt P27958); test: ELISA, mAb with E1E2 (H77), then CD81-LEL plate
[25] = molecular target: HCV E1E2 complex, isolate H77 (genotype 1a) (hepatitis C virus genotype 1a, isolate H77) (UniProt P27958)

mouse MAb A4 (antibody) was tested, and the residual binding [1] was 98%, the % residual binding [2] was 96% and the residual binding [3] was 99%. It also gave a % residual binding [4] of 102%, a % residual binding [5] of 98% and a residual binding [6] of 99%. For the same substance, the % residual binding [7] was 100%, the % residual binding [8] was 100% and the residual binding [9] was 100%. The residual binding [10] was 87%, the residual binding [11] was 101% and the residual binding [12] was 95%. It also gave a residual binding [13] of 99%, a % residual binding [14] of 101% and a % residual binding [15] of 101%. The residual binding [16] was 99%, the % residual binding [17] was 100% and the % residual binding [18] was 96%. The residual binding [19] was 100%, the residual binding [20] was 85% and the % residual binding [21] was 100%.

In the case of MAb AR3D (IgG1 from Fab L4) (antibody), the EC50 [22] is reported as 4 nM, the EC50 [23] is reported as 2.4 nM and the IC50 [24] is reported as 1 nM.

With MAb AR3D (antibody) the residual binding [25] was 58%.
